Reference: patent US20230025280A1, “PH RESPONSIVE COMPOSITIONS, FORMULATIONS, AND METHODS OF IMAGING A TUMOR” (ONCONANO MEDICINE, INC, priority 2019, published 2023)
“And” between values parts separate entries of the source, which are not always exact repeats. Identical values can stand only once. Marks after values point to notes of the source that are not given here.

Assay: Phase 1 (1a/1b) pharmacokinetics: plasma concentrations after single IV dose (validated direct fluorescence reader assay), noncompartmental analysis
Format: in vivo, human
Source text: Phase 1 is a single-Principal Investigator, non-randomized, open-label, single-arm, cross-sectional study to evaluate the safety, PK profile, and imaging feasibility of Compound 1 in patients with solid cancers who require surgical excision. The main purpose of this study was to investigate the safety, PK, and feasibility of Compound 1 as an intra-operative optical imaging agent to detect tumors and metastatic lymph nodes in solid cancers. The study was intended to investigate the optimal dose range of Compound 1 for an adequate TBR and CNR of fluorescence obtained intraoperatively at 24 (±8) hours post dosing and with ex vivo specimens using ICG compatible cameras and imaging devices.
Phase 1 enrolled 30 patients with solid cancers (HNSCC, breast cancer, esophageal cancer, or colorectal cancer) who have a biopsy-confirmed diagnosis of respective tumor types and are scheduled to undergo surgical resection of the tumor. The study design included a standard 3+3 design for the dose-escalation portion (Phase 1a; N=18 maximum) followed by a dose-expansion portion (Phase 1b; N=15). All patients received a single I.V. dose of Compound 1, followed by routine surgery approximately 24 hours after infusion of Compound 1.
Phase 1a was a dose-finding study performed in 5 cohorts of 3 patients each. The dose levels evaluated were […], and 1.2 mg/kg, in this sequence. Inter-cohort dose escalation took place after the last patient in the previous cohort completed the Day 10 safety assessment. Safety, PK, and imaging feasibility were evaluated in both the Phase 1a and 1b portions of the study. Patient safety is assessed during the study and for up to 10 days post-dose.
Study design: Single Compound 1 IV dose was administered as a 1-5 minute IV infusion to patients in five cohorts (0.1, 0.3, 0.5, 0.8, and 1.2 mg/kg) with three patients per cohort in Phase 1a and 15 patients at a dose of 1.2 mg/kg in Phase 1b. Patient demographic information including tumor types is presented in Table 4 and 5 for Phase 1a and Table 5 for Phase 1b. Intertek Pharmaceutical Services (San Diego, Calif.) determined Compound 1 plasma concentrations using a validated direct fluorescence reader assay. Pacific BioDevelopment (Davis, Calif.) performed the PK analysis.
Sample collection: Blood samples were collected prior to infusion and at 10 minutes and 0.5, 1, 3, 8, 24, 48, 72, and 240 hours after infusion.
Analysis: Plasma concentration versus time profiles were generated for each patient. Pharmacokinetic parameters were estimated using Phoenix WinNonlin (version 8.0). According to SOP, concentrations reported as BQL were set to 0 except for the 0.5 h sample for subject #ON1102, which was set to LLOQ/2 ([…] value used in parameter calculations) and the 24 and 48 h samples.
If the coefficient of determination for the terminal slope estimation was less than 0.8, T1/2 was not reported (NR). AUC extrapolated to infinity is not reported for any data set because in all cases the % extrapolated AUC was greater than 20% and thus the AUCinf estimate would not be reliable. The concentration at 10 minutes, the first time point measured (C10m), was also reported for each patient.
The area under the plasma concentration versus time curves from dosing to the last time point with a measurable concentration (AUClast) was estimated by the linear trapezoid method. The last three or more time points were used to estimate the elimination rate constant (λz) which was used to estimate the terminal-phase half-life (T1/2) and AUC from zero to infinity (AUCINF) from the following equations: […]

[1] = 1.2 mg/kg, HNSCC, individual subjects
[2] = Phase 1a, 0.3 mg/kg single IV, individual subject
[3] = Phase 1a, 0.3 mg/kg single IV, mean
[4] = Phase 1a, 0.3 mg/kg single IV, median
[5] = Phase 1a, 0.5 mg/kg single IV, individual subject

## PEO90-140-b-P(DBA60-150-r-ICG0-3-r-AMA0-3) [Compound 1]
1.2 mg/kg, HNSCC, Mean, N 7
  Cmax: 33600 ng/mL
  Tmax: 1.14 h
1.2 mg/kg, HNSCC, Median, N 5
  T1/2: 42.6 h
1.2 mg/kg, HNSCC, Median, N 7
  AUC0-24 hr: 565 µg·h/mL
  AUCall: 1160 µg·h/mL
  AUClast: 970 µg·h/mL
  C10 m: 30.3 µg/mL
  Cmax: 32400 ng/mL
  Tmax: 0.500 h
[1]
  AUC0-24 hr: 348 µg·h/mL and 563 µg·h/mL and 565 µg·h/mL and 520 µg·h/mL and 625 µg·h/mL and 730 µg·h/mL and 740 µg·h/mL
  AUCall: 348 µg·h/mL and 1160 µg·h/mL and 1100 µg·h/mL and 747 µg·h/mL and 2690 µg·h/mL and 2550 µg·h/mL and 2740 µg·h/mL
  AUClast: 184 µg·h/mL and 970 µg·h/mL and 957 µg·h/mL and 520 µg·h/mL and 1430 µg·h/mL and 1480 µg·h/mL and 1580 µg·h/mL
  C10 m: 28.0 µg/mL and 34.1 µg/mL and 28.5 µg/mL and 27.5 µg/mL and 30.3 µg/mL and 47.6 µg/mL and 31.3 µg/mL
  Cmax: 28000 ng/mL and 34100 ng/mL and 29900 ng/mL and 29200 ng/mL and 32400 ng/mL and 47600 ng/mL and 34300 ng/mL
  T1/2: 32.5 h and 46.5 h and 42.6 h and 38.4 h and 46.8 h
  Tmax: 0.170 h and 1.00 h and 0.500 h and 3.00 h
Phase 1a and 1b, up to 1.2 mg/kg
  AUC0-24h in relation to dose: appears to be dose proportional
Phase 1a and Phase 1b combined
  Exposure in relation to dose: dose proportional
Phase 1a, 0.1 mg/kg
  Measurability in subject plasma samples: not measurable
Phase 1a, 0.1 mg/kg single IV, individual subject
  C10 m: 0.00 µg/mL
Phase 1a, 0.1 mg/kg single IV, mean
  C10 m: 0.00 µg/mL
Phase 1a, 0.1 mg/kg single IV, median
  C10 m: 0.00 µg/mL
Phase 1a, 0.100 mg/kg, 0.170 hr, individual subject
  Plasma Conc: BQL (BQL (<10 μg/mL), set = 0 for PK analysis)
Phase 1a, 0.100 mg/kg, 0.170 hr, mean
  Plasma Conc: 0.00 µg/mL
Phase 1a, 0.100 mg/kg, 0.500 hr, individual subject
  Plasma Conc: BQL (BQL (<10 μg/mL), set = 0 for PK analysis)
Phase 1a, 0.100 mg/kg, 0.500 hr, mean
  Plasma Conc: 0.00 µg/mL
Phase 1a, 0.100 mg/kg, 1.00 hr, individual subject
  Plasma Conc: BQL (BQL (<10 μg/mL), set = 0 for PK analysis)
Phase 1a, 0.100 mg/kg, 1.00 hr, mean
  Plasma Conc: 0.00 µg/mL
Phase 1a, 0.100 mg/kg, 3.00 hr, individual subject
  Plasma Conc: BQL (BQL (<10 μg/mL), set = 0 for PK analysis)
Phase 1a, 0.100 mg/kg, 3.00 hr, mean
  Plasma Conc: 0.00 µg/mL
Phase 1a, 0.100 mg/kg, 8.00 hr, individual subject
  Plasma Conc: BQL (BQL (<10 μg/mL), set = 0 for PK analysis)
Phase 1a, 0.100 mg/kg, 8.00 hr, mean
  Plasma Conc: 0.00 µg/mL
Phase 1a, 0.100 mg/kg, 24.0 hr, individual subject
  Plasma Conc: BQL (BQL (<10 μg/mL), set = 0 for PK analysis)
Phase 1a, 0.100 mg/kg, 24.0 hr, mean
  Plasma Conc: 0.00 µg/mL
Phase 1a, 0.100 mg/kg, 48.0 hr, individual subject
  Plasma Conc: BQL (BQL (<10 μg/mL), set = 0 for PK analysis)
Phase 1a, 0.100 mg/kg, 48.0 hr, mean
  Plasma Conc: 0.00 µg/mL
Phase 1a, 0.100 mg/kg, 72.0 hr, individual subject
  Plasma Conc: BQL (BQL (<10 μg/mL), set = 0 for PK analysis)
Phase 1a, 0.100 mg/kg, 72.0 hr, mean
  Plasma Conc: 0.00 µg/mL
Phase 1a, 0.100 mg/kg, 240 hr, individual subject
  Plasma Conc: BQL (BQL (<10 μg/mL), set = 0 for PK analysis)
Phase 1a, 0.100 mg/kg, 240 hr, mean
  Plasma Conc: 0.00 µg/mL
Phase 1a, 0.3 mg/kg
  Mean AUC0-24h: 197 µg·h/mL
  Mean C10: 12 µg/mL
[2]
  AUC0-24 hr: 292 µg·h/mL and 4.68 µg·h/mL and 296 µg·h/mL
  AUCall: 437 hr*μg/mL and 4.68 hr*μg/mL and 2040^1 hr*μg/mL
  AUClast: 292 µg·h/mL and 3.43 µg·h/mL and 902 µg·h/mL
  C10 m: 10.7 µg/mL and 10.4 µg/mL and 14.8 µg/mL
  Cmax: 12500 ng/mL and 10400 ng/mL and 16500 ng/mL
  Tmax: 8.00 h and 0.170 h and 3.00 h
[3]
  AUC0-24 hr: 197 µg·h/mL
  AUCall: 826 µg·h/mL
  AUClast: 399 µg·h/mL
  C10 m: 12.0 µg/mL
  Cmax: 13100 ng/mL
  Tmax: 3.72 h
[4]
  AUC0-24 hr: 292 µg·h/mL
  AUCall: 437 µg·h/mL
  AUClast: 292 µg·h/mL
  C10 m: 10.7 µg/mL
  Cmax: 12500 ng/mL
  Tmax: 3.00 h
Phase 1a, 0.300 mg/kg, 0.170 hr, individual subject
  Plasma Conc: 10.7 µg/mL and 10.4 µg/mL and 14.8 µg/mL
Phase 1a, 0.300 mg/kg, 0.170 hr, mean
  Plasma Conc: 12.0 µg/mL
Phase 1a, 0.300 mg/kg, 0.500 hr, individual subject
  Plasma Conc: 5.00^b μg/mL and 15.1 μg/mL
Phase 1a, 0.300 mg/kg, 0.500 hr, mean
  Plasma Conc: 10.1 µg/mL
Phase 1a, 0.300 mg/kg, 1.00 hr, individual subject
  Plasma Conc: 11.4 μg/mL and BQL (BQL (<10 μg/mL), set = 0 for PK analysis) and 12.9 μg/mL
Phase 1a, 0.300 mg/kg, 1.00 hr, mean
  Plasma Conc: 8.10 µg/mL
Phase 1a, 0.300 mg/kg, 3.00 hr, individual subject
  Plasma Conc: 12.0 μg/mL and BQL (BQL (<10 μg/mL), set = 0 for PK analysis) and 16.5 μg/mL
Phase 1a, 0.300 mg/kg, 3.00 hr, mean
  Plasma Conc: 9.50 µg/mL
Phase 1a, 0.300 mg/kg, 8.00 hr, individual subject
  Plasma Conc: 12.5 μg/mL and BQL (BQL (<10 μg/mL), set = 0 for PK analysis) and 11.2 μg/mL
Phase 1a, 0.300 mg/kg, 8.00 hr, mean
  Plasma Conc: 7.90 µg/mL
Phase 1a, 0.300 mg/kg, 24.0 hr, individual subject
  Plasma Conc: 12.1 μg/mL and BQL (BQL (<10 μg/mL), set = 0 for PK analysis) (2×)
Phase 1a, 0.300 mg/kg, 24.0 hr, mean
  Plasma Conc: 6.05 µg/mL
Phase 1a, 0.300 mg/kg, 48.0 hr, individual subject
  Plasma Conc: BQL (BQL (<10 μg/mL), set = 0 for PK analysis)
Phase 1a, 0.300 mg/kg, 48.0 hr, mean
  Plasma Conc: 0.00 µg/mL
Phase 1a, 0.300 mg/kg, 72.0 hr, individual subject
  Plasma Conc: BQL (BQL (<10 μg/mL), set = 0 for PK analysis) (2×) and 13.5 μg/mL
Phase 1a, 0.300 mg/kg, 72.0 hr, mean
  Plasma Conc: 4.50 µg/mL
Phase 1a, 0.300 mg/kg, 240 hr, individual subject
  Plasma Conc: BQL (BQL (<10 μg/mL), set = 0 for PK analysis)
Phase 1a, 0.300 mg/kg, 240 hr, mean
  Plasma Conc: 0.00 µg/mL
Phase 1a, 0.5 mg/kg
  Mean AUC0-24h: 289 µg·h/mL
  Mean C10: 17.3 µg/mL
[5]
  AUC0-24 hr: 314 µg·h/mL and 340 µg·h/mL and 213 µg·h/mL
  AUCall: 314 µg·h/mL and 1980 µg·h/mL and 213 µg·h/mL
  AUClast: 160 µg·h/mL and 969 µg·h/mL and 101 µg·h/mL
  C10 m: 22.0 µg/mL and 16.2 µg/mL and 13.6 µg/mL
